# Data published in US9845340B2, “Peptides that specifically bind HGF receptor (cMet) and uses thereof” (Dyax Corp., priority 2003, dated 2017).
# Experiments:
# [1] = molecular target: T1, 3T3 cells that over-express human cMet (Homo sapiens, UniProt P08581); test: Whole cell ELISA of peptide-displaying phage; format: cell-based; settings: phage isolate; 3T3 cells expressing human cMet vs. non-expressing 3T3 cells
# T1 construct: expressed in transfected cells; host or cells: 3T3 cells
# In short: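 3T3 cells over-expressing human cMet seeded 10^5/well, pelleted and fixed with 0.1% glutaraldehyde 12 min at 37 °C. Blocked peptide-displaying phage bound 1 h at room temperature; after PBST wash, bound phage detected with HRP-conjugated anti-M13 antibody.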
# cMet-Fc fusion protein = cMet-Fc fusion protein (Homo sapiens, UniProt P08581); test: Protein phage ELISA: peptide-displaying phage binding to soluble cMet-Fc versus TRAIL-Fc; settings: phage isolate; cMet-Fc vs. TRAIL-Fc
# In short: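 Plates coated with 0.5 μg/mL cMet-Fc or, as background, TRAIL-Fc, then blocked with 3% BSA in PBST. Peptide-displaying phage bound 2 h at room temperature. Detection with HRP-anti-M13 antibody.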
# Chain of cMet-Fc fusion protein (P08581 25-307 limits assumed): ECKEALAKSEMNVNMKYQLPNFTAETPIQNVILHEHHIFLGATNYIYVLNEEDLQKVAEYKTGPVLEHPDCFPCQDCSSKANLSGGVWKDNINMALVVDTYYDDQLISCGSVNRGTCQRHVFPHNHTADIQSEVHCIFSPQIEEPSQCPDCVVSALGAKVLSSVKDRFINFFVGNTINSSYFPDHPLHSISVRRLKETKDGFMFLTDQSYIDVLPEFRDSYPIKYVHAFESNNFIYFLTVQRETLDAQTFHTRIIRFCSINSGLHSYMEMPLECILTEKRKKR
# Chain of cMet-Fc fusion protein (P08581 with tags, fused parts or gaps limits assumed): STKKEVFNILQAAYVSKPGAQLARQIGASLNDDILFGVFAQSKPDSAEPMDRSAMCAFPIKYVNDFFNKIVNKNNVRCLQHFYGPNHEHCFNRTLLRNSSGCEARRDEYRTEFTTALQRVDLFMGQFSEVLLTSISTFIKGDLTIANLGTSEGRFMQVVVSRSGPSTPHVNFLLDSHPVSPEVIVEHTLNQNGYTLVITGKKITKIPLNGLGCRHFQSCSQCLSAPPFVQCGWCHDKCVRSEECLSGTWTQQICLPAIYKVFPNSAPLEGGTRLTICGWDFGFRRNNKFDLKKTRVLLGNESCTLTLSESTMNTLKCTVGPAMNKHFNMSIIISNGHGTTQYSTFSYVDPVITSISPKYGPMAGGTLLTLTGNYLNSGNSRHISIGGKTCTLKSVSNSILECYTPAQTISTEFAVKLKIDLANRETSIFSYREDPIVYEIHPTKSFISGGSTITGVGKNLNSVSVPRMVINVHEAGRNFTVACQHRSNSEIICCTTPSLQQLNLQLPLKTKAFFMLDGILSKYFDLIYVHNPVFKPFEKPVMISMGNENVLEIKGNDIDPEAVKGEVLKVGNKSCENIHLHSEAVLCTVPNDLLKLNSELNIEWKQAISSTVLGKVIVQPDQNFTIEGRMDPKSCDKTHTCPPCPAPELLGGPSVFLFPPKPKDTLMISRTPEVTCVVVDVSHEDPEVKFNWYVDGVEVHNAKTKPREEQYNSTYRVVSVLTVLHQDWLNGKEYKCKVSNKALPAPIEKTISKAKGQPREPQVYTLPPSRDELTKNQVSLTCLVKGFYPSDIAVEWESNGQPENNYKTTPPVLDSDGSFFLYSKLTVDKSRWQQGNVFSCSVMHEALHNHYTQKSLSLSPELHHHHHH
# T1 sequence (P08581 25-1390): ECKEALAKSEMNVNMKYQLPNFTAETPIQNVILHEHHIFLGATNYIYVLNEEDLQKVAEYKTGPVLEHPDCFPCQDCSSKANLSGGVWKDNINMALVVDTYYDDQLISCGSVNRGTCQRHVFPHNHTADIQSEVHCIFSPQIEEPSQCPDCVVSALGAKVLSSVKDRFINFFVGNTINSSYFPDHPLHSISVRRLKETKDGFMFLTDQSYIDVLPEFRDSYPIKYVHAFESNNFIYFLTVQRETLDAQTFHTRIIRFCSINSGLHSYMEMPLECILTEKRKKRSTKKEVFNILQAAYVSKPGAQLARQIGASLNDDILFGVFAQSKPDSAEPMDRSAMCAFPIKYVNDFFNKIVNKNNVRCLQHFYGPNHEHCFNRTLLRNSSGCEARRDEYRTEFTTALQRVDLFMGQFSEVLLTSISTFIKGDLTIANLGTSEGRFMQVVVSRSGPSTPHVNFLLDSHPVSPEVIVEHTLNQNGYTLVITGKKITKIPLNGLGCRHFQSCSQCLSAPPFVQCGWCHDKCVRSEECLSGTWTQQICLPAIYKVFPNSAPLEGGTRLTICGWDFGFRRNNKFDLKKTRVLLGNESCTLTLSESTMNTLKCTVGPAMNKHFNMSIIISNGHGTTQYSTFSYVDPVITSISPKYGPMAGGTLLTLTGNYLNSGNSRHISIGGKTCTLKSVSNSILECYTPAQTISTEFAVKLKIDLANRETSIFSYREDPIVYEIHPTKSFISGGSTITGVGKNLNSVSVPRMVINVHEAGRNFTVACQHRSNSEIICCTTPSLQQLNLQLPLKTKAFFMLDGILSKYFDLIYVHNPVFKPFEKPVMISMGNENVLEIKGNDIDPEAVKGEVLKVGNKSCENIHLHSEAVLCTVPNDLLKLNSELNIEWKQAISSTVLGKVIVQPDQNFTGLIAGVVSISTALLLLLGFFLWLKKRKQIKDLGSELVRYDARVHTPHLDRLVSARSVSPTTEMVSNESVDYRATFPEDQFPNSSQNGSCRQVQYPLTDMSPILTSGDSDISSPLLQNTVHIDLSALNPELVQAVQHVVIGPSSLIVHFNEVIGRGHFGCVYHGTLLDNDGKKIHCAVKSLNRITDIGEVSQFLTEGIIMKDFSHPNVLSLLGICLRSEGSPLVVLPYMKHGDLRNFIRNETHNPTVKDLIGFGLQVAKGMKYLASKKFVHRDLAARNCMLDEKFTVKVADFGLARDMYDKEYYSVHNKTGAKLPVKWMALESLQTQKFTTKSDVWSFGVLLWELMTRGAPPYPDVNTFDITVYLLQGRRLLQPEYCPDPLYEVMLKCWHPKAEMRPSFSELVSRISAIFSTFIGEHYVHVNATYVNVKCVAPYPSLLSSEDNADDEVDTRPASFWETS
Sequence,WC ELISA [1] [fold over background],Protein ELISA (cMet-Fc fusion protein) [fold over background]
AQWGAVDNDWYDWEMEQIWMFE (Synthetically generated cMet-binding peptide sequence) [SEQ ID NO: 491],1.23,3.2
AQWNQWDEFMWFLNPPPIGLMW (Synthetically generated cMet-binding peptide sequence) [SEQ ID NO: 480],1.23,3.3
AQWNWDMGFMWTTDSAQVQPSM (Synthetically generated cMet-binding peptide sequence) [SEQ ID NO: 489],1.37,3.0
GDASMCYDGLALRWDQCWPHDP (Synthetically generated cMet-binding peptide sequence) [SEQ ID NO: 404],1.30,3.4
GDASWCDENSPAAWFYCELWDP (Synthetically generated cMet-binding peptide sequence) [SEQ ID NO: 394],1.37,13.4
GDGFLCRWENGWCEFWDP (Synthetically generated cMet-binding peptide sequence) [SEQ ID NO: 047],1.30,4.7
GDHLTCEFRDDGWKEHCWWSDP (Synthetically generated cMet-binding peptide sequence) [SEQ ID NO: 403],1.23,11.1
GDHRKCEISAKTHEVTCYDNDP (Synthetically generated cMet-binding peptide sequence) [SEQ ID NO: 402],1.17,5.2
GDLLGCGYQEKGGEYKCRFNDP (Synthetically generated cMet-binding peptide sequence) [SEQ ID NO: 395],1.40,13.5
GDLLVCKFDDKFWTETCEWADP (Synthetically generated cMet-binding peptide sequence) [SEQ ID NO: 392],1.47,23.7
GDNRFCSWVYNVDDWWCVDNDP (Synthetically generated cMet-binding peptide sequence) [SEQ ID NO: 398],1.30,6.2
GDPDECQLNRETFEVWCPWHDP (Synthetically generated cMet-binding peptide sequence) [SEQ ID NO: 401],1.23,4.3
GDPWWCFEKDSFIPFACWHHDP (Synthetically generated cMet-binding peptide sequence) [SEQ ID NO: 396],1.30,7.4
GDSYNCSWDSKTFEVTCLYADP (Synthetically generated cMet-binding peptide sequence) [SEQ ID NO: 393],1.20,8.4
GDYRMCQISDMWGNYECSSDDP (Synthetically generated cMet-binding peptide sequence) [SEQ ID NO: 400],1.30,6.1
GDYYQCQFSKDMYSERCWPYDP (Synthetically generated cMet-binding peptide sequence) [SEQ ID NO: 397],1.30,7.0
GSAGWCYTMNYVDQLCTYMAP (Synthetically generated cMet-binding peptide sequence) [SEQ ID NO: 387],1.43,3.7
GSDMNCTVLAQDQIFCFREAP (Synthetically generated cMet-binding peptide sequence) [SEQ ID NO: 386],1.37,3.0
GSEFECTGWPEFRCYEYAP (Synthetically generated cMet-binding peptide sequence) [SEQ ID NO: 100],1.20,8.4
GSELFCFYHHQGYEGCDVLAP (Synthetically generated cMet-binding peptide sequence) [SEQ ID NO: 385],1.27,4.8
GSEYSCRTSRCIFSAP (Synthetically generated cMet-binding peptide sequence) [SEQ ID NO: 006],1.33,3.2

Sequence,WC ELISA [1] [fold over background],Protein ELISA (cMet-Fc fusion protein) [fold over background]
GSFAPCGWPSFAIDCIAEAP (Synthetically generated cMet-binding peptide sequence) [SEQ ID NO: 367],1.30,7.7
GSFILCWWTFCDTNAP (Synthetically generated cMet-binding peptide sequence) [SEQ ID NO: 007],1.30,3.4
GSFNICPYQWCTLWAP (Synthetically generated cMet-binding peptide sequence) [SEQ ID NO: 010],1.37,3.0
GSFTACNKTSTTRQPCNPYAP (Synthetically generated cMet-binding peptide sequence) [SEQ ID NO: 384],1.37,3.1
GSFWNCTTDLGAMSDCGFFAP (Synthetically generated cMet-binding peptide sequence) [SEQ ID NO: 383],1.37,3.1
GSGDPCSPGPSINGHCSVMAP (Synthetically generated cMet-binding peptide sequence) [SEQ ID NO: 382],1.33,4.5
GSGMGCHQVNISTGDCAEDAP (Synthetically generated cMet-binding peptide sequence) [SEQ ID NO: 381],1.43,3.9
GSHHTCLDGFAGWRCTEVAP (Synthetically generated cMet-binding peptide sequence) [SEQ ID NO: 366],1.33,10.4
GSLIFCPYGECMMYAP (Synthetically generated cMet-binding peptide sequence) [SEQ ID NO: 005],1.33,3.5
GSLIICWWSWCDKQAP (Synthetically generated cMet-binding peptide sequence) [SEQ ID NO: 009],1.27,3.8
GSLYRCLGEASPTPPCAYEAP (Synthetically generated cMet-binding peptide sequence) [SEQ ID NO: 380],1.37,4.0
GSMLGCLFEHQNKYDCYVLAP (Synthetically generated cMet-binding peptide sequence) [SEQ ID NO: 379],1.43,3.2
GSMLMCELWWCRFLAP (Synthetically generated cMet-binding peptide sequence) [SEQ ID NO: 004],1.27,3.4
GSMNMCDTTDEISPTCHPSAP (Synthetically generated cMet-binding peptide sequence) [SEQ ID NO: 378],1.40,3.6
GSQNNCEYGSRGSSFCLAMAP (Synthetically generated cMet-binding peptide sequence) [SEQ ID NO: 377],1.23,6.4
GSQQICDRKEYRFQACLSDAP (Synthetically generated cMet-binding peptide sequence) [SEQ ID NO: 371],1.40,3.4
GSRFHCWQGDLMQTYCMPMAP (Synthetically generated cMet-binding peptide sequence) [SEQ ID NO: 376],1.30,3.0
GSSARCDELINDFHSCLVMAP (Synthetically generated cMet-binding peptide sequence) [SEQ ID NO: 375],1.33,4.3
GSSHCNQMITPWQNCGMRAP (Synthetically generated cMet-binding peptide sequence) [SEQ ID NO: 374],1.37,3.3
GSSHLCNPEFCHFTAP (Synthetically generated cMet-binding peptide sequence) [SEQ ID NO: 003],1.30,3.2
